Measurements: article PMC5559510

What was measured:
[1] = biological target: TMR labeled SNAP-25a Δ9 (residues 1–197, S187C) (human) (UniProt P60880); experiment: FRET or BRET; two-membrane system, 37°C; Munc18-1/full-length syntaxin-1 on t-liposomes, BDPY-full-length synaptobrevin-2 (S61C) on v-liposomes, TMR-SNAP-25a Δ9 (S187C), 0.5 μM Munc13-1 C1-C2B-MUN, with or without 0.5 μM Syt1 C2AB, 0.2 mM EDTA; two-phase exponential decay
[2] = biological target: TMR-labeled SNAP-25a (S187C) (human) (UniProt P60880); experiment: FRET or BRET; one-membrane system, 37°C; Munc18-1/full-length syntaxin-1 on t-liposomes, TMR-SNAP-25a (S187C), BDPY-synaptobrevin-2 (29–93, S61C) in solution, 0.5 μM Munc13-1 C1-C2B-MUN, with or without 0.5 μM Syt1 C2AB, 0.2 mM EDTA; two-phase exponential decay
[3] = biological target: TMR-labeled SNAP-25a (S187C) (human) (UniProt P60880); experiment: FRET or BRET; membrane-free, 37°C; 5 μM co-expressed Munc18-1/syntaxin-1 (1–261), 5 μM TMR-SNAP-25a (S187C), 1 μM BDPY-synaptobrevin-2 (29–93, S61C), 30 μM Munc13-1 MUN domain, with or without 2 μM Syt1 C2AB; fitted to a one-phase exponential decay

| Substance | kfast of ternary SNARE complex formation (no Syt1) [1] [s⁻¹] | kfast of ternary SNARE complex formation (with Syt1 C2AB) [1] [s⁻¹] | τfast of ternary SNARE complex formation (no Syt1) [1] [s] | τfast of ternary SNARE complex formation (with Syt1 C2AB) [1] [s] | kfast of ternary SNARE complex formation (no Syt1) [2] [s⁻¹] | kfast of ternary SNARE complex formation (with Syt1 C2AB) [2] [s⁻¹] | τfast of ternary SNARE complex formation (no Syt1) [2] [s] | τfast of ternary SNARE complex formation (with Syt1 C2AB) [2] [s] | kfast of ternary SNARE complex formation (no Syt1) [3] [s⁻¹] | kfast of ternary SNARE complex formation (with Syt1 C2AB) [3] [s⁻¹] | τfast of ternary SNARE complex formation (no Syt1) [3] [s] | τfast of ternary SNARE complex formation (with Syt1 C2AB) [3] [s] |
| --- | --- | --- | --- | --- | --- | --- | --- | --- | --- | --- | --- | --- |
| BDPY-labeled full-length synaptobrevin-2 (residues 1–116, S61C), on v-liposomes (from UniProt P63045 1-116) (natural protein) | 0.0123 | 0.0249 | 81.4 | 40.1 |  |  |  |  |  |  |  |  |
| BDPY-labeled synaptobrevin-2 cytoplasmic domain (residues 29–93, S61C) (from UniProt P63045 29-93) (domain or fragment) |  |  |  |  | 0.00135 | 0.0152 | 740 | 65.8 | 0.0013 | 0.00354 | 770 | 282 |
